Test: soluble fraction after stress (log2 fold change); higher = more stays soluble; pooled small domains, quantitative proteomics
Conditions: stress: 75 degC
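Also: 20 min heating vs room temperature control held 20 min.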

Point of comparison: “HMAATHYEGIKQDGETDDAVIERVLTGLSVTANKDDIFIVKTLIAGTKYSYTAYVYNGNAWAAM”, “soluble fraction (log2)” value -1.38. Against it:
- HMAAADLNMRAKLADLGGMSYGELSIWEKTHGMEFAAWEHEWEKLNSGTQADGLKFPKHLPEGFPT — higher, 0.185
- HMAAAKDVMDWQNAIRGLTDAKGKPYSPTYLKTVHNQLSALFNHAVRYYGLQVNPAAKAGNMGVEE — higher, -0.131
- HMAADDGSARAEQLREMYSLISGLDKLDKAIILMWLDERSYDEIAEVTGFTRNNVATRLHRIKSRLARQSN — lower, -1.66
- HMAAEIGSGVVDAYDLRLRSQPSTDAETIIYLDNGAKLSVQEDLGDWYKVVSGTYTGYVSAEYVAYTPSPE — higher, -0.806
- HMAAELHPYGADSYRGDNPPAGYEIKAKEESKKFHTPSSPWYGRTIAEIWFRTEEAAEAAGFINAVK — higher, -0.246
- HMAAELQALSVRELEVLDQLAGGASNREIAQRLYISENTVRNHVHSILTKLKLQNRTQLVGMT — higher, -0.981
- HMAAESWTEKSRALAAAGLVVMGRDAQTKIEELTNLAPLIEAANASNTRLLTSQSIDELLSIVPTEENL — higher, 0.0818
- HMAAGKGVTTGSVRLRKGSNTDSAIIATLKKDTELILYGKKDGWYSVKTSDGTEGFVSSKYVKVTEAY — higher, 0.61
- HMAAGLTPKQKAFADNYIKNGGNAAEAARAAGYSLKNVGANAGKLLKNPKIAAYIAEKQAELDRRNGT — higher, 0.196
- HMAAINPSALREPATPPEQLSAGDSVLHPRFGRGEILELQQQGGDPRAIVQFINEPKPRTLVLRYAQLRK — higher, -0.138
- HMAAKADAVKKAIAAIGKVDASEDSKAKVEAARKAYAALTEDQKKLVEASQLKLLTEAEAAYQQAVEESKK — higher, -0.283
- HMAAMSLGERIGAHRKRMGISQEELGHRMGVSRQAVSKWETGRAVPDMENLLALARLFGVPVSELAD — higher, -0.129
- HMAAPVGLTQRQMEVAALVADGLTNAEIGRRLHITERSAESHLERVRIRLGFRSRAQVAAWFVTQE — lower, -3.56
- HMAATSTGFPGVEVRGNSIRVFFMYKRDRHAHTLPLEPTRNNIKHADQLRSAALFALRNGTYNEADFFPHS — lower, -1.6
- HMAATVKVPDLTKMTPDEAQRALGQVGLKGKQGDDVDDDSVPVGYIAKQDEAPNSDAKAGDTITYHL — higher, 0.15
- HMAAVSSHAVKQRIRSLIQAEDPASPLSDEALRLALSALGVEVSRRAVAKYRTSMDIPASSQRKK — higher, -0.656
- HMADEDTILALAKEILASWPDKVEAYKNGNKGMLGLFMGELMKKSGGKANPKSASALIQKLLE — higher, -0.13
- HMADEIQLVVQVNGKLRGRIMVAPDASREEIEKTALADADVSRFLGDTPVKKVIIVPKRLVNIVAPAPK — higher, -1.08
- HMADENIELRKAGLKVTLPRVKILQILEAAKEPHMSAEDVYKALMEANEEVGLATVYRVLTQFESAGL — higher, -0.245
- HMADGKWTLTDAGYTFTYSDGRKARGTWEDIDGEWYHFDRNGIMETGWKTVGNIRYHFNQDGSL — within 0.2 log units, -1.52
- HMADIGRMKELIDILNRASAVYYQGKDEIMSNFEYDKLYDELVSLEKESGLVLAGSPTQKVGY — higher, -0.179
- HMADKHVAAALLKLMDHLVGGRQYAFMKGRLTINKKVVLEATEVSAYRRGTGLSDADWQQRYE — lower, -2.06
- HMADLKRLNEQIHYLGQYLSTKATYKEFLQANNKKIYRSEHQDEIAKYEEAAQFLKRSSPDGTIPTMKDLR — higher, -0.27
- HMADLSAYAGKEGMTDSVLRPSGKVDIEGHILDAVSRGDFIEKGKRVIVIKAEGSYLVVKKRMP — lower, -1.84
- HMADLTEEQKTLFRLIRDLQPVSSKTLLENSGFTRSTQTRLLNGLIEKQIVIRTGNGPATRYSLR — within 0.2 log units, -1.26
- HMADLTIDGVEYTKVSPTGTLTLEKVYTKNVTPADGQYYIQTGTKTVRVATDAEVAVIKAGGF — higher, 0.153
- HMADNKDMQAAFMEALNGLKEYAKVNGNIVTKEDVNSYFKDMHLDDNKYSMITGYLMANGITIKG — higher, 0.179
- HMADPRFHSEIMLSKIESLLSGKADSDVSNYSIQGRSLTKMSLQELMDARESYDGLVKSEKAKLDAKY — higher, 0.0156
- HMADPVTPQDLIRWSEALAGIARTGLGFTQSLYEQERFEEVLAVAADMRVAAGSSYNPDDLVHEWMKSVG — higher, -0.565
- HMADQVVGQLGMVTQRIDNLQQTGRVSANGLDWAARSENGQPIPQGMPVEVLRIEGVKLIVRPVN — higher, -0.114
- HMADTIEVVVQVNGKVRAKISTSPEVFADSTKLQELALADANVQKFIAGQTIRKVIIPKGTKLLNIV — higher, -0.198
- HMADTSPEGVQKLIKAFEQFGVSKDDIEGFIQRRVDAITPANVVSLRKIFTSLRDGMSSAKDWFKGA — higher, 0.095
- HMADVIKLVNTSVLNVRSGAGINYSKIGSLTQGTKVNIISESNGWSKINYNGKIGYISSQYVSEVS — lower, -1.92
- HMADVLLKHGSSGDYVWDLQYRLKTLSLFDQEMTGYFGPHTRQAVVNFQRKYGLPADGVVGPATWRALRK — lower, -2.41
- HMADVPSTIFEAYRILGLNPEAPPVAVKKVVDALRMSWHPDHARSEPDRRHREERIKQINAAWDLLKGV — higher, -0.183
- HMADVYFDGKFLGETPVTVAVSTTGKPAHEISLIRGGYEPWSTTYQGNPRPGQTATVMAILVHA — higher, 0.31
- HMAEAAVELSQQILARLLEAGGSLPLSDKSSPEDIHRLFGVSKRTFKKAIGGLYKKGLILIHPERIELP — within 0.2 log units, -1.37
- HMAEAETVKFVGNSLLLVSGAAKGERLSVYTVGGQHVLSADATKPVDVAALHSGVYVVRTTNGVITKIVK — within 0.2 log units, -1.25
- HMAEATATVTASEMVVRSGPSSSYSVLGSLEKGTVVTVLAASDGIAKISYKGNTGYARIVDMELNSA — higher, -0.612
- HMAEDDAVQKAVREAVAESADAVADYKAGSERALNFIVGVVMKKTRGKASPGEVHRLVKAEVEK — higher, 0.595
- HMAEDLRTLDGIDEDLLRDLAQAGITTRDGLAELSIDELREITGVEPGEAEKIILAARAHWFETDE — higher, 0.0602
- HMAEEGEQAASNTAAQAEDRAAELAAAGEKGKQITKTLVAEFGIPKNEAYRLALDAVAAVKAER — higher, -0.265
- HMAEEPLRIWTDLQGRSIEASFIKFSGNNIVIKMKSGRDYEVARSLFSPGDQKYLSDLKKSTPE — within 0.2 log units, -1.5
- HMAEERVLSVPQSLAGERLDAALASLMPDYSRSRLASWIKEGLVTVDGAGAMPKQKLWGGETLRVQAQPT — higher, 0.373
- HMAEKAVELTENEKAIQTILSNGALEIGELKTKLELSGKQWDVALKGLAKHGITQVSKVEGVVTVGL — higher, 0.359
- HMAEKGIGRVNADWLNMRTSPGGEVLTVLKQGTELQVIGRSGSWLEVQHGNEQGYVSSRYITIQP — higher, -0.356
- HMAEKVIVVADSITVGELAEKLNLPVTNLIGELFKNGIVSTINQRIDFETASIIVEELGLDVELERK — higher, -0.137
- HMAELNLPVRKIGGEDYYYRQVKKKETIYGISKELGITKEDIIKYNPSVASGLQRNQILYFPVKDFK — higher, -0.327
- HMAELVISVKADGTIHYQDRQLTKEALAAVLETRPEALLNLYVDEKAPFEAFVGVVDIARLKRGGHFVIST — lower, -1.94
- HMAENPAYTKGVVNRLYKIRATPYYSYSYNVDQKTYEGRGKQYGEYENLHIGDTITVYYQRSNPSNSEA — higher, -0.288
- HMAEPIEKIIIEGNQRIEALTIQSYLLLRVGEPFNRQLMNQTLKSLYATGYFSDVAVTRVSSSLLVK — higher, 0.153
- HMAEPLEIGDTVRIIDGFYGGEIGVISELVNPDAKNAEFEQVRVRLDQDTELALPIHNVERVRL — higher, 0.498
- HMAEPRVQEVYFEFDGKQVEAGQVVSLIEQAYKNEGHQIGRIKDLKVYINSEEGKAYYVINGDDGEGKYIE — higher, 0.0727
- HMAESLHVTAAALFEGRAMLGIDGSRRLLRVGETSPEGVKLVSATAREAVIEIDGRRQTLAPGRDT — higher, -0.133
- HMAESSLPKMPRDESKYIYHSVQPGETVYSLSKRYSVSESDIVKSNPGIDITKLSLGLEVAIPRI — higher, 0.691
- HMAEVAFEEQNIEQISNLLLRIQAIFAELMTALDKEKGGEIADNLERLYVFFLEKLGDANVRKDPAP — higher, 0.585
- HMAEVHVDGVTYQFSNPEQAVKFARKIAKELGLKVEVHGETVHVK — higher, -0.0253
- HMAEVTLTVREQEVLHLLARGMSNGEMAAHLYVEPTTIKYHLTGLLQKTGSRDRLQAVLWGIRAGMVH — lower, -2.81
- HMAEWIYGKNVVKQSIEEGMVLKLILQRKEDPLFVLAQEKQIPVEILDRHKMTSLVKSDRHQGVAAQI — higher, -0.742
- HMAFEDYAGEYRSAADFAESLHEDTGTEIPESLRYYIDWQALARDMALNGEIMVFQTGFDEVHIFWS — higher, -0.63
- HMAFEITSAERTRLEDIARKGLTAYTAEWKQLPASEKKALNKTGLQDFLKSMAADADSAREEEA — higher, 0.0228
- HMAFKEQLKAARLAKGYTQEQLATAIGVAKSTFTGYEKGNSEPNMLTIKKLMEILEVDANYLWY — lower, -2.91
- HMAFRWQQIADTITSMIANGSYPRGSRLPTEAALADSFGVNRHTVRRAVAALRDTGLVQPRQGAGVFVIG — lower, -2.02
- HMAFYQDIAVDLRKQIIDGVYPKNSRLPNQAELAKLYTTSRVTIQKALKILQIEGLIEGRQGSGSYVKGP — lower, -2.11
- HMAGHKVDFSELPARSQAFIGKNFPTEMVKNVEMERKDAKDHYTVLLSNGTKVMFDGTSGELTGV — higher, 0.0762
- HMAGISQGLAENVERRITTLLREQKEVPVHDIDFPGISRETVGQVLHQMVQEEKLLLDDGMISLSPNQ — higher, 0.181
- HMAGPAGASEVANARDGDDETPLHMAARGGYPGIVRMLLAAGAKADAKSAAGLFPWNYAEDGSELHALLPR — higher, 0.139
- HMAGPTIVTNSQGVPNYHLVKRGDTVSQIAQRYGLNYRQIGAINNLDSKYTIYSGQWLKLWQG — within 0.2 log units, -1.37
- HMAGQWQQDQNGWKYKTDNGDHMKNTWYQDSDSRWYYFGPDGYMKSSTMTPDGYVVGSDGAWIE — higher, -0.662

Source: the domain aggregation screens of Martell et al. (2025)
